Activity (fold vs WT SpCas9) data for three substances are collected here from patent publication US20240043820.

In data set [1] the target is SpCas9 Mut 4110 N767E,Q771R,K772Q,K775D,R780K,Q844R,L847M,K848T,D850N,I852F,K913E,G915R,F916W,I917V,V922M (Streptococcus pyogenes) (UniProt Q99ZW2). In words: cell_activity. Particulars: yeast survival assay; PAM not stated.
For data set [2], the target named is SpCas9 Mut 2.2 (TurboCas9) V842L,Q844R,F846Y,L847M,I852F (Streptococcus pyogenes) (UniProt Q99ZW2). Put plainly: cell_activity. To be noted: HEK293T; 5% alleles unedited vs 36% for WT; PAM not stated.

ADE2 gRNA ; ADE2 target site returned an activity (fold vs WT SpCas9) in data set [1] of 2.

Take HIS3 gRNA ; HIS3 target site: the activity (fold vs WT SpCas9) in data set [1] worked out at 3.9.

VEGFA gRNA ; VEGFA target site had an activity (fold vs WT SpCas9) in data set [2] of 1.5.
